Positions count from the first letter of the chain named. “And” between values parts separate entries of the source, which are not always exact repeats. Equal entries are not always repeated.
T1: hDPEP3-ECD-His (human, UniProt Q9H4B8 36-463)
T1 construct: also called hDPEP3-His; monomeric hDPEP3-His antigen; not shown: histidine tag
T1 sequence: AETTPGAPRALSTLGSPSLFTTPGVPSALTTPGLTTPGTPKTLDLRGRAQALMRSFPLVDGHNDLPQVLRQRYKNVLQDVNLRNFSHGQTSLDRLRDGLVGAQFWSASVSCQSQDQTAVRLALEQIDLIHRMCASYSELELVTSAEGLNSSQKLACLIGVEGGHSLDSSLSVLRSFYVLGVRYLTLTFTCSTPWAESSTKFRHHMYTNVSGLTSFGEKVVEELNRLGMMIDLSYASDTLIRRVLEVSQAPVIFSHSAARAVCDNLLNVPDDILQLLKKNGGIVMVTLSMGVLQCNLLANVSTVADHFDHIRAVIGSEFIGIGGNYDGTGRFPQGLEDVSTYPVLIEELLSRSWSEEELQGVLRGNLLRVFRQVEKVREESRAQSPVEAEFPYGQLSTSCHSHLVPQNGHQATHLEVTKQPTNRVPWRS

T2: mDPEP3 (limits assumed)
T2 construct: also called mouse DPEP3-His; mouse DPEP3 ECD with histidine tag
T2 single chain: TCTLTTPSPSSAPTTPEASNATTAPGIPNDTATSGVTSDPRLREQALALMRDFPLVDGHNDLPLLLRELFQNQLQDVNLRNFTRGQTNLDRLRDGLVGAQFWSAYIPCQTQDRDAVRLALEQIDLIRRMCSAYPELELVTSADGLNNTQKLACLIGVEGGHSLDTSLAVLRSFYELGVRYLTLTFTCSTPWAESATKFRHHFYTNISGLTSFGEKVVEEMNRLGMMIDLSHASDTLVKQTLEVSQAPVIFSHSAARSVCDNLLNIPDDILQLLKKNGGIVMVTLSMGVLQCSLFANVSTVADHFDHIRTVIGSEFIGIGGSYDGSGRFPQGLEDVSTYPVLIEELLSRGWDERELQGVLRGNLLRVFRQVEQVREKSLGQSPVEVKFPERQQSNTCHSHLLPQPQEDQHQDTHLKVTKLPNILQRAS

T3: rat DPEP3 ECD with histidine tag (rat, UniProt Q5U2X4 36-459, limits assumed)
T3 construct: also called rDPEP3-His; ratDPEP3-His; not shown: histidine tag
T3 sequence: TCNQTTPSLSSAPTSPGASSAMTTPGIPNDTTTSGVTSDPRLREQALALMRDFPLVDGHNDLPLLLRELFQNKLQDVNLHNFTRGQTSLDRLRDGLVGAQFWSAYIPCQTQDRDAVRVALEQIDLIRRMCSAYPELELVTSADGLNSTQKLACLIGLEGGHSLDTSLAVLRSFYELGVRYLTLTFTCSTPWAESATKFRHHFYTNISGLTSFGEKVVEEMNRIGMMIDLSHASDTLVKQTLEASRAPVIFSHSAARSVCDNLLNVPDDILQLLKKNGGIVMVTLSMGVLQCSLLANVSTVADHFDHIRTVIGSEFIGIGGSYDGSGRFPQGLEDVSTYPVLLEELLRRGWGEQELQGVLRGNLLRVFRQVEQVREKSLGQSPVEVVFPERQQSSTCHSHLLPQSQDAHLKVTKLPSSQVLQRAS

B1: SC34.67 (antibody, mouse IgG2a, V domains shown)
VH: QVQLQQSGAELARPGASVRLSCKASGYTFTSYGINWVKQRTGQGLEWIGEIYPGSGDSYYNKTFKGKAILTTDKSSSTAYMQLSSLTPEDSAVYFCARVHDYGSWFPYWGPGALVTVSA
VL: DMVMSQSPSSLAVSVGEKVALSCKSSQSLLHSRDQKNYLAWYQQKPGQSPKLLIHWASTRESGVPARFTGSGSGTDFTLTISSVKAEDLAVYYCQQSYRYPLTFGAGTKLELK
B2: SC34.4 (antibody, mouse IgG2b, V domains shown)
VH: B1 VH with R19K, D57N, S58I, K62E, T63K, S77N, P88S, G110A, P111Q, A113T
VL: DIVMSQSPSSLTVSVGEKVTMSCKSSQSLLYSRNQKNYLAWYQQKPGQSPKLLIYWASTRDSGVPDRFTGTGSGTDFSLTISSVKTEDLAVYYCHQHYRYPLTFGAGTKLELK
notes: also called SC34.04
B3: SC34.63 (antibody, mouse IgG1)
light chain: DIVMSQSPSSLAVSVGEKVTMSCKSSQSLLYSKYQKNYLAWYQQKPGQSPKLLIYWASTRESGVPDRFTGSESGTDFTLTISSVKAEDLAVYYCQQYYRYPLTVGAGTKLELK
heavy chain: QVQLQQSGVELARPGASVKLSCKASGYTFTSYGIDWVKQRTGQGLEWIGETYPGRGDTYYNENFKGKATLTTDKSSSTAFLQLSSLTSEDSAVYFCARVHDYGSWFPYWGQGTLVTVSA
B4: SC34.76 (antibody, mouse IgG1, V domains shown)
VH: QVQLQQSGAELARPGASVKLSCKTSEYTFTSYAINWVKQRTGQGLEWIGEVYPGSGNTYYNEKFKGKAILTTDKSSSTGYMQLSNLTSEDSAVYFCARVHDYGSWFPYWGQGTLVTVSA
VL: B3 light chain with K18R, S22N, L30F, K33R, E72G, V104F
B5: SC34.95 (antibody, mouse IgG1)
light chain: B3 light chain with M4L, Y31N, K33R, Y34D, Q35R, Y42C, L52V, L53M, E72G, R99S
heavy chain: QVQVKQSGAELARPGASVKLSCKASGYTFTSYAINWLKQRTGQGLEWIGEIYPGSGNTYYNESFKNKATLTTDKSSTTAYMQLNSLTSEDSAVYFCARVHDYGSWFPYWGQGTLVTVSA
B6: SC34.7 (antibody, mouse IgG1, V domains shown)
VH: QVQVQQSGAELARPGASVKLSCKASGYTFTSYGINWVKQRTGQGLEWIGEIYPGSGNAYYNEKFKVKAKLTTDNSSRTAYMQLINLTSEDSAVYFCARVHDYGSWFPYWGQGTLVTVSA
VL: B3 light chain with K33R, E72G, Q95H, V104F
notes: also called SC34.07
B7: SC34.83 (antibody, mouse IgG2a, V domains shown)
VH: QVQLQQSGAELVKPGASVKISCKASGYAFSHSWMNWVKQRPGKGLEWIGRIYPGDGDINYNGKFKGKATLTADKSSSTAYMQLSSLTSEDSAVYFCARRGPSYNNYCFDYWGQGTTLTVSS
VL: QIVLIQSPAIMSASPGENVTMTCSASSSVSYMHWYQQKSGTSPKRWIYDTSKLASGVPARFSGSGSGTSYSLTISSMEAEDAATYYCQQWNSYPPTFGAGTKLELK

Target: T1, hDPEP3-ECD-His
Experiment: BLI ForteBio RED, 200 nM hDPEP3-His, estimated grade
Experimental: The affinity of the antibodies for hDPEP3-His was qualitatively determined from kinetics curves generated with a ForteBio RED as follows. Anti-DPEP3 antibodies were immobilized onto anti-mouse Fc capture biosensors with a contact time of 3 mins. and a flow rate of 1000 rpm. The captured antibody loading from baseline was constant at 0.3-1 units. Following antibody capture and 30 second baseline, the biosensors were dipped into a 200 nM solution of hDPEP3-His for a 4 min. association phase followed by a 3 min. dissociation phase at a shaking rate of 1000 rpm. The biosensors were regenerated by dipping into 10 mM glycine, pH 1.7 following each cycle. The data was processed by subtracting a control mouse IgG surface response from the specific antibody response and data was truncated to the association and dissociation phase. The association and dissociation curves were used to qualitatively estimate the affinities of selected antibodies. […] A designation of “ND” means that the estimated KD was not determined.

Binder | Kd
B1 | < 5 nM
B2 | ≥ 5 nM and ≤ 10 nM
B3 | < 5 nM
B4 | < 5 nM
B5 | < 5 nM
B6 | ≥ 5 nM and ≤ 10 nM
B7 | > 10 nM

Target: T2, mDPEP3
Experiment: ELISA, coated antigen
Experimental: (§1) The anti-DPEP3 antibodies were screened by ELISA for cross-reactivity with mouse, rat and cynomolgus DPEP3 and for cross reactivity to hDPEP2, the closest DPEP3 family member. ELISA was conducted as follows. Plates were coated with purified mouse, rat or cynomolgus DPEP3-His or hDPEP2-His at 0.3 μg/mL in 0.2 M carbonate-bicarbonate buffer, pH 9.4 overnight at 4° C. The protein solution was removed and the wells were blocked with 1% (w/v) BSA in PBS (PBSA), 100 μL/well for 1 hour at 37° C. Anti-DPEP3 antibody or a mouse isotype control antibody was then added at 1 μg/mL in 50 μL PBSA for 1 hour at room temperature. After washing with water, 50 μL/well HRP-labeled goat anti-mouse IgG antibody diluted 1:10,000 in PBSA was added for 30 min at room temperature. The plates were washed and developed by the addition of 40 μL/well of the TMB substrate solution (Thermo Scientific) at room temperature. An equal volume of 0.2 M H₂SO₄ was added to stop substrate development. The samples were then analyzed by spectrophotometer at OD 450. […] The cross reactivity results for exemplary DPEP3-specific antibodies can be seen in FIG. 4.

Binder | binding result
B1 | no binding (tested: 1 ug/mL)
B2 | no binding (tested: 1 ug/mL)
B3 | no binding (tested: 1 ug/mL)
B4 | no binding (tested: 1 ug/mL)
B5 | no binding (tested: 1 ug/mL)
B6 | no binding (tested: 1 ug/mL)

Target: T3, rat DPEP3 ECD with histidine tag
Experiment: ELISA, coated antigen
Experimental: as §1

Binder | binding result
B1 | no binding (tested: 1 ug/mL)
B3 | no binding (tested: 1 ug/mL)
B4 | no binding (tested: 1 ug/mL)
B6 | no binding (tested: 1 ug/mL)

Target: T4, hDPEP2 ECD with histidine tag (human, UniProt Q9H4A9 33-463)
T4 construct: also called hDPEP2-His; not shown: histidine tag
Experiment: ELISA, coated antigen
Experimental: as §1

T4 sequence (Q9H4A9 33-463): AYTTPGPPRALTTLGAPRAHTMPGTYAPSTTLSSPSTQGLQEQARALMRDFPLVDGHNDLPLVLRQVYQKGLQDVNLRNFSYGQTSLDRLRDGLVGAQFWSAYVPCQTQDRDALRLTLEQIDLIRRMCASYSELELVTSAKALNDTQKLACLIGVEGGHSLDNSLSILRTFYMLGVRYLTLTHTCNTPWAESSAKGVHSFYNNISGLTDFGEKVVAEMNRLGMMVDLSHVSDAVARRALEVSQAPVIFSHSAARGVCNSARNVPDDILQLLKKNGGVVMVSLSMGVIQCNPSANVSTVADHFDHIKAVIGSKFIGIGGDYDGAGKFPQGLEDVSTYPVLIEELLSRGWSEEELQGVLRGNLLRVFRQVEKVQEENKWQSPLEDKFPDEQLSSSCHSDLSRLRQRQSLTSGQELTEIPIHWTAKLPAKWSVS

Binder | binding result
B1 | no binding (tested: 1 ug/mL)
B2 | no binding (tested: 1 ug/mL)
B3 | no binding (tested: 1 ug/mL)
B4 | no binding (tested: 1 ug/mL)
B5 | no binding (tested: 1 ug/mL)
B6 | no binding (tested: 1 ug/mL)
B7 | no binding (tested: 1 ug/mL)
